Reference: publication PMC10592010

Target: EGFP-tagged full-length AR pQ69 mutant (GFP-ARpQ69) (human) (UniProt P10275)
Assay: live-cell single-particle tracking

residence time (RT): 16 s
Substance: Halo-tagged AR NTD pQ69 with NLS (Halo-ARNTDpQ69-NLS) (from UniProt P10275-1 1-538) (domain or fragment)
